The values that follow come from patent publication US20210079089A1 (SURROZEN OPERATING, published 2021).

As usually defined, the Kd is the concentration at which binding is half-saturated. The low end stands for a tighter complex, the high end for a looser complex.

In assay [1] the target is T1, LRP6E3E4_O75581_631-1246 (Homo sapiens (Human), UniProt O75581 631-1246, biotinylated in the BLI/SPR assays (C-terminal biotin acceptor peptide)).
T1 construct: The entry holds residues 631-1246 of UniProt O75581 followed by a biotin acceptor peptide and eight His; For crystals the complex was treated with carboxypeptidase A and B
T1 sequence: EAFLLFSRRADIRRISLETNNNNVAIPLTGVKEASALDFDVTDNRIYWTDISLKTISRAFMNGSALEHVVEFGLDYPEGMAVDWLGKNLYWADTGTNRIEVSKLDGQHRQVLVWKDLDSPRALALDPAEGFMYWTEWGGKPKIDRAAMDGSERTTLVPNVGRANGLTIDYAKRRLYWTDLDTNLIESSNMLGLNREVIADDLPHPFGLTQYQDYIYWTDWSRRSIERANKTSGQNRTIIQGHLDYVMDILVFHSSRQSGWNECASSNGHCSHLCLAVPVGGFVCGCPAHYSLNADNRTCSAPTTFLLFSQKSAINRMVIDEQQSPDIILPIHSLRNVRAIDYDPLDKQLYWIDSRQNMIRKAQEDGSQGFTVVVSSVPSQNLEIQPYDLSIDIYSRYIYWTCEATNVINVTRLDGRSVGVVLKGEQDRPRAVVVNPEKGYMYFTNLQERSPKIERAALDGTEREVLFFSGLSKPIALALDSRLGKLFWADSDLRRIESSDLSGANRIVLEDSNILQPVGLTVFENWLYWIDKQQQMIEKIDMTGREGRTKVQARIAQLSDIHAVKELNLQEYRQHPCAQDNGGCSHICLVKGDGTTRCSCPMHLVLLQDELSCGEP
Nature of the assay: Octet BLI or BIAcore SPR. On the technique in general: Biolayer interferometry detects binding as a change in optical thickness at a sensor tip.

In another assay the target is T2, biotinylated-LRP6 CRD (UniProt O75581 631-1246, limits assumed, biotinylated).
T2 construct: LRP6 has no CRD
T2 sequence (looked up): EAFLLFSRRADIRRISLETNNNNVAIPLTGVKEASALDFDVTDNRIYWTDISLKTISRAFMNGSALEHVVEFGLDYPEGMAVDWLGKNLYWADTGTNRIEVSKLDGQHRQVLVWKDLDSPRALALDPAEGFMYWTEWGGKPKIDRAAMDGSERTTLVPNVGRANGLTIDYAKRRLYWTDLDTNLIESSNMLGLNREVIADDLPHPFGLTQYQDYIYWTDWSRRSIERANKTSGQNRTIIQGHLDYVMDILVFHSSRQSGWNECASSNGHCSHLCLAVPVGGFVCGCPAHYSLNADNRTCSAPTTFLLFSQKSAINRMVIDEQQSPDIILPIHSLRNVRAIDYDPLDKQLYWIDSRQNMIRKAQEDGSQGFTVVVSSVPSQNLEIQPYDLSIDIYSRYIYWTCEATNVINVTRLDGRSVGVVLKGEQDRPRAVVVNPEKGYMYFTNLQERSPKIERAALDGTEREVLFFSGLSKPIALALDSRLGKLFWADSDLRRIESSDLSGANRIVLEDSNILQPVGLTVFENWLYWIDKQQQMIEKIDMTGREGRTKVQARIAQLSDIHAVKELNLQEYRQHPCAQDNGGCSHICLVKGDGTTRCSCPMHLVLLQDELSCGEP
Put plainly: Octet BLI, biotinylated LRP6; wild type 009S-E04, not an alanine mutant. The procedure:
(§1) Binding kinetics of antibody fragments to LRP5 extracellular domain (LRP5 ECD) and/or LRP6 extracellular domain (LRP6 ECD) protein targets was determined by bio-layer interferometry (BLI) using Octet Red 96 (PALL ForteBio, Fremont, Calif.) instruments at 30° C., 1000 rpm with streptavidin (SA) biosensors. C-terminal biotinylated LRP ECD recombinant protein was diluted to 20 nM in the running buffer (PBS, 0.05% Tween-20, 0.5% BSA, pH 7.2) and captured to the SA biosensor until coupling length reached 0.2 nm. Following capture of the LRP5 or LRP6, the SA biosensor with captured biotinylated-LRP5 or biotinylated LRP6 was dipped into wells containing the relevant antibody fragment at […] (0, 1.37, 4.12, 12.4, 37, 111.1, 333.3, 1000 nM) in running buffer, plus a well with only running buffer as a reference channel. KD was determined by global fitting, 1:1 binding model according to manufacturer recommended settings.
One antibody fragment, 009S-E04, was selected for alanine-scanning mutagenesis of CDRs, and the respective LRP6 binding affinities of the various mutants were determined by Octet BLI as described in Example 1.

Assay [2] has as its target T1, LRP6E3E4_O75581_631-1246. Nature of the assay: Octet BLI, affinity class. The procedure:
as §1

The target of a further assay is T3, LRP6e1e2 (UniProt O75581 20-630, limits assumed, C-terminally biotinylated).
T3 construct: domain: E1E2; also called LRP6 E1E2 domains
T3 sequence (looked up): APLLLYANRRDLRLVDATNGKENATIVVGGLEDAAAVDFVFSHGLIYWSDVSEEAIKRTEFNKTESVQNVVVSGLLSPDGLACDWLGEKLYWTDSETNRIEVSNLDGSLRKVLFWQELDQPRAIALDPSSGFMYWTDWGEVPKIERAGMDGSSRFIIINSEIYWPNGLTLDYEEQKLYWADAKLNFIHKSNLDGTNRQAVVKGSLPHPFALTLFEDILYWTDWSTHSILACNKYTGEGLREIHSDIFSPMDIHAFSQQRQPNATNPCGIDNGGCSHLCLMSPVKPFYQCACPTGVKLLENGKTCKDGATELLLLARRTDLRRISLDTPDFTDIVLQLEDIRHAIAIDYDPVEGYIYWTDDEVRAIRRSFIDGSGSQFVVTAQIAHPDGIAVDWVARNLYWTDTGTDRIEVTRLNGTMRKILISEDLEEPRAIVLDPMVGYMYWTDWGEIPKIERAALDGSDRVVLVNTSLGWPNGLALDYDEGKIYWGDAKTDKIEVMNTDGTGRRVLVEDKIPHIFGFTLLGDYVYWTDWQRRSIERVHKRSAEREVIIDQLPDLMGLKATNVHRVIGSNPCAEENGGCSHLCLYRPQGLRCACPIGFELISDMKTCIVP
Nature of the assay: Octet BLI, affinity class. The procedure: as §1

The target of assay [3] is T1, LRP6E3E4_O75581_631-1246. Nature of the assay: Octet BLI or BIAcore SPR; Table 1B (heavy-chain-only clones).
In assay [4] the target is T1, LRP6E3E4_O75581_631-1246. Nature of the assay: co-crystal structure, column Antigen. As to the method: Structure of Lrp6E3E4:VHH/Fab complexes were determined by molecular replacement method using Phaser [Phaser crystallographic software. A. J. McCoy, R. W. Grosse-Kunstleve, P. D. Adams, M. D. Winn, L. C. Storoni, and R. J. Read. J Appl Crystallogr 40, 658-674 (2007)] with published structures Lrp6E3E4 [PDB code: 4AOP; Chen S, Bubeck D, MacDonald B T, Liang W X, Mao J H, Malinauskas T, Llorca O, Aricescu A R, Siebold C, He X, Jones E Y. Dev. Cell 21 848-61 (2011)] and a VHH or sdAb [PDB code: 6B20, chain E; Gulati S, Jin H, Masuho I, Orban T, Cai Y, Pardon E, Martemyanov K A, Kiser P D, Stewart P L, Ford C P, Steyaert J, Palczewski K. Nat Commun 91996 (2018)], followed by refinement and validation by MolProbity as implemented in Phenix [PHENIX: a comprehensive Python-based system for macromolecular structure solution. P. D. Adams, P. V. Afonine, G. Bunkoczi, V. B. Chen, I. W. Davis, N. Echols, J. J. Headd, L. W. Hung, G. J. Kapral, R. W. Grosse-Kunstleve, A. J. McCoy, N. W. Moriarty, R. Oeffner, R. J. Read, D. C. Richardson, J. S. Richardson, T. C. […]
Diffraction quality crystals of Lrp6E3E4:VHH36 (concentration=14.0 mg/mL) were obtained by grid-screen optimization in a condition containing 1.6 M ammonium sulfate and 0.1 M Tris pH 8.2. […] Structure of Lrp6E3E4:VHH36 complex was determined at a resolution of 2.70 Å, and refined to Rcryst and Rfree factors of 18.6% and 22.8%, respectively.

B1: 009S-E04 (VHH)
VHH: DVQLVESGGGLVQAGGSLRLACAGSGRIFAIYDIAWYRHPPGNQRELVAMIRPVVTEIDYADSVKGRFTISRNNAMKTVYLQMNNLKPEDTAVYYCNAKRPWGSRDEYWGQGTQVTVSS
On to B1, for which the results for the Kd in the assay with LRP6E3E4_O75581_631-1246 [1], with biotinylated-LRP6 CRD and with LRP6E3E4_O75581_631-1246 [2] were less than 500 nM, less than 100 nM and less than 500 nM, respectively.

B2: 009S-D04 (VHH)
VHH: QVKLEESGGGLVQPGGSLRLSCETSATIVSIYRINWYRQAPGKQREWVAGITSSGRTIYADSVKGRFTISRDNAKNTVYLQMNNLKPEDTAVYYCNAASTVTAWPYYGPDYWGKGTLVTVSS
Take B2: the Kd with LRP6E3E4_O75581_631-1246 [2] was less than 500 nM; with LRP6e1e2 it was less than 500 nM; in the assay with LRP6E3E4_O75581_631-1246 [3], greater than 500 nM.

B3: VHH36 (013S-D05) (VHH)
VHH: QVKLEESGGGLVQAGGSLRLSCAASGRIFSIYDMGWFRQAPGKEREFVSGIRWSGGTSYADSVKGRFTISKDNAKNTIYLQMNNLKAEDTAVYYCGSRGYWGQGTLVTVSS
modifications: Gln1 modified as pyroglutamate (in the crystal structure)
notes: Construct of the crystal structure, with C-terminal GSGSG-His6; the complex was treated with carboxypeptidase A and B before crystallisation
Consider B3, for which, in the assay with LRP6E3E4_O75581_631-1246 [4], the binding result is recorded as “binds”.
